From article PMC10954479 (Nucleic Acids Research, 2024)
Positions count from the first letter of the chain named. Names may count otherwise.

T1: HDAC4GRD (residues 62–192) F93D mutant (human, UniProt P56524 62-192, F93D)
T1 sequence: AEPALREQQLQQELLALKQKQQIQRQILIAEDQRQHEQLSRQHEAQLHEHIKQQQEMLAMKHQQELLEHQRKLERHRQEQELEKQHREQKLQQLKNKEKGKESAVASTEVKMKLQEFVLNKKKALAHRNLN

B1: human HDAC4 glutamine-rich domain (HDAC4GRD, residues 62–192), wild type (domain or fragment)
chain: T1 sequence with D32F
B2: HDAC4GRD (residues 62–192) H109D mutant (domain or fragment)
chain: T1 sequence with D32F, H48D
B3: human MEF2A MADS-box/MEF2s domain (residues 1–95) (domain or fragment)
chain: MGRKKIQITRIMDERNRQVTFTKRKFGLMKKAYELSVLCDCEIALIIFNSSNKLFQYASTDMDKVLLKYTEYNEPHESRTNSDIVEALNKKEHRG
B4: 15 bp crystallization DNA (dsDNA)
DNA 1: AAACTATTTATAAGA
DNA 2: TCTTATAAATAGTTT
B5: 28 bp EMSA DNA (dsDNA)
DNA 1: GGGAAAGTTTCTATTATTAGCAGAGATA
DNA 2: TATCTCTGCTAATAATAGAAACTTTCCC
B6: Site-2 DNA (dsDNA)
DNA 1: CTAAGCAAATGAGATGAATATGCAGGGCACCATGCTAAAAATAAAATGGTTTCATGGTGCTAGTGAGGAAGGAA
DNA 2: TTCCTTCCTCACTAGCACCATGAAACCATTTTATTTTTAGCATGGTGCCCTGCATATTCATCTCATTTGCTTAG
B7: Site-1 DNA (dsDNA)
DNA 1: GGGAAAGTTTCTATTATTAGCAGAGATA
DNA 2: TATCTCTGCTAATAATAGAAACTTTCCC

Assays:
[1] = molecular target: the molecule itself; assay: crystal structure
[2] = molecular target: the molecule itself; assay: SEC
[3] = molecular target: B2; assay: native gel or EMSA
[4] = molecular target: T1, HDAC4GRD (residues 62–192) F93D mutant; assay: native gel or EMSA
[5] = molecular target: T2, MEF2A1-95;HDAC4GRD WT (Homo sapiens;Homo sapiens, UniProt Q02078;P56524 1-95;62-192, |); assay: X-ray crystallography
[6] = molecular target: MEF2A1-95;HDAC4GRD F93D (Homo sapiens;Homo sapiens, UniProt Q02078;P56524 1-95;62-192, |F93D); assay: EMSA
[7] = molecular target: T3, MEF2A1-95;HDAC4GRD H109D (Homo sapiens;Homo sapiens, UniProt Q02078;P56524 1-95;62-192, |H109D); assay: EMSA
[8] = molecular target: T2, MEF2A1-95;HDAC4GRD WT; assay: EMSA
[9] = molecular target: T2, MEF2A1-95;HDAC4GRD WT; assay: pull-down
[10] = molecular target: T3, MEF2A1-95;HDAC4GRD H109D; assay: pull-down
[11] = molecular target: T2, MEF2A1-95;HDAC4GRD WT; assay: pull-down; remark: listed apart in the source

For B1, the “stoichiometry N” value [1] was 2.

B2: binds [2].

In the case of B3, the binding result [3] is reported as “binds”, the binding result [4] is reported as “binds” and the “stoichiometry N” value [1] is reported as 2.

B4: binds [5].

B5: binds [6]; binds [7]; binds [8].

B6: binds [9]; binds [10].

B7: binds [11].
